Assay results: article PMC6281582

Biological target: FOXO3a (UniProt O43524)
Assay: IP of FOXO3a, anti-Flag blot for SirT6
Settings: reference: WT-SirT6; sites S338

binding against the reference: lost
Substance: SirT6 (from UniProt Q8N6T7) S338A
